This passage reports binding results from article PMC12607152.

Series [1] addresses T1, CcpA (catabolite control protein A) (Staphylococcus aureus (XN108?)) (UniProt P99175).
T1 sequence: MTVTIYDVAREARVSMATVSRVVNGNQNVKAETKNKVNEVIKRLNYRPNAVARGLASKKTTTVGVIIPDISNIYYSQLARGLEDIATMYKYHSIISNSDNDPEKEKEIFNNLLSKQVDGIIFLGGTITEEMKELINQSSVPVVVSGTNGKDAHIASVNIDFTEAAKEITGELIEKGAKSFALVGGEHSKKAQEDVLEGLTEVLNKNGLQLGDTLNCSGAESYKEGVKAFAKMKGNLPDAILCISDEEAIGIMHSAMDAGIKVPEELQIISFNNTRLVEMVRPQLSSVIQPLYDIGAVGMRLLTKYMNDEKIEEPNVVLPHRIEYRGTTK
Put plainly: EMSA. Conditions: not given in the material; EMSA as previously described (ref 22).

The target in series [2] is T1, CcpA (catabolite control protein A) (Staphylococcus aureus (XN108?)). Put plainly: competition. Particulars: not given in the material; EMSA as previously described (ref 22).

Turning to “CAGTCCTCAACTCTTTTAATGTTTTCATGTTGTCACCGCCTTTCGTAAACCTAATATAATACGAAATTTTCGTATTGTCAACATTAAATACGTTTTTTTCGTAAAAAACTTTACTATGATATGAAAATTTCGTATAATAAGAAAAAAGGAGGTAAGTAAT (double strand) [PcI probe (160-bp region upstream of cI)]”, the binding entry in series [1] is listed as “binds”.
“CAGTCCTCAACTCTTTTAATGTTTTCATGTTGTCACCGCCTTTCGTAAACCTAATATAATACGAAATTTTCGTATTGTCAACATTAAATACGTTTTTTTCGTAAAAAACTTTACTATGATATGAAAATTTCGTATAATAAGAAAAAAGGAGGTAAGTAAT (double strand) [PcI unlabeled competitor]”: the binding result in series [2] is on record as “binds”.
